{
  "source": "paper PMC9529347",
  "biological_target": "SARS-CoV-1 RBD monomer (N321-P513) with C-terminal AVI-tag and 6xHIS-tag (SARS-CoV-1)",
  "experiment": "SPR",
  "data": [
    {"substance": "soluble human ACE2, truncated ectodomain (S19-D615), C-terminal 6xHIS-tag (from UniProt Q9BYF1 19-615) (receptor)", "values": [
      {"measurement": "Kd", "value": 253, "unit": "nM"}
    ]}
  ]
}
